B1: Pre-mRNA-splicing factor CWC22 homolog (Homo sapiens), Q9HCG8 (parent)
chain: MKSSVAQIKPSSGHDRRENLNSYQRNSSPEDRYEEQERSPRDRDYFDYSRSDYEHSRRGRSYDSSMESRNRDREKRRERERDTDRKRSRKSPSPGRRNPETSVTQSSSAQDEPATKKKKDELDPLLTRTGGAYIPPAKLRMMQEQITDKNSLAYQRMSWEALKKSINGLINKVNISNISIIIQELLQENIVRGRGLLSRSVLQAQSASPIFTHVYAALVAIINSKFPQIGELILKRLILNFRKGYRRNDKQLCLTASKFVAHLINQNVAHEVLCLEMLTLLLERPTDDSVEVAIGFLKECGLKLTQVSPRGINAIFERLRNILHESEIDKRVQYMIEVMFAVRKDGFKDHPIILEGLDLVEEDDQFTHMLPLEDDYNPEDVLNVFKMDPNFMENEEKYKAIKKEILDEGDTDSNTDQDAGSSEEDEEEEEEEGEEDEEGQKVTIHDKTEINLVSFRRTIYLAIQSSLDFEECAHKLLKMEFPESQTKELCNMILDCCAQQRTYEKFFGLLAGRFCMLKKEYMESFEGIFKEQYDTIHRLETNKLRNVAKMFAHLLYTDSLPWSVLECIKLSEETTTSSSRIFVKIFFQELCEYMGLPKLNARLKDETLQPFFEGLLPRDNPRNTRFAINFFTSIGLGGLTDELREHLKNTPKVIVAQKPDVEQNKSSPSSSSSASSSSESDSSDSDSDSSDSSSESSSEESDSSSISSHSSASANDVRKKGHGKTRSKEVDKLIRNQQTNDRKQKERRQEHGHQETRTERERRSEKHRDQNSSGSNWRDPITKYTSDKDVPSERNNYSRVANDRDQEMHIDLENKHGDPKKKRGERRNSFSENEKHTHRIKDSENFRRKDRSKSKEMNRKHSGSRSDEDRYQNGAERRWEKSSRYSEQSRESKKNQDRRREKSPAKQK

Variants of: B1
Conditions: with if4a3_human EIF4A3, P38919
Sequence of if4a3_human EIF4A3, P38919 (P38919 whole entry): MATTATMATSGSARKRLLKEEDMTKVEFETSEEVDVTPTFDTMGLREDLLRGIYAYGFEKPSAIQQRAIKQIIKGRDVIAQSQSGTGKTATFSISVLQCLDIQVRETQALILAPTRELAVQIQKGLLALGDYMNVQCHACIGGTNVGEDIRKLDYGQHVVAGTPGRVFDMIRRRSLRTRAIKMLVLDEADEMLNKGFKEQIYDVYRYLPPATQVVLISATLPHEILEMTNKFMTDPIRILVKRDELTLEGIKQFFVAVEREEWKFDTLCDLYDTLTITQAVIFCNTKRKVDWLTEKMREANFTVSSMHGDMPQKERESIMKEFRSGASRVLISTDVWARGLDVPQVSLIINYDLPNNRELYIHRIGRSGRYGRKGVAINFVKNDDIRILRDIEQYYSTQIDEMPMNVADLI
R331A;Y334A was tested, and the “effect of a mutation on the interaction” value was “decreasing interaction strength”. For N171A;K172A;N174A, the “effect of a mutation on the interaction” value was “disrupting interaction strength”.
